According to paper PMC6599559 (Journal of molecular biology, 2019):

Target: eukaryotic elongation factor 2 (eEF-2) from yeast (yeast (commercial yeast cake), UniProt P32324 1-842)
Test: ITC

Chain of eukaryotic elongation factor 2 (eEF-2) from yeast (P32324 whole entry): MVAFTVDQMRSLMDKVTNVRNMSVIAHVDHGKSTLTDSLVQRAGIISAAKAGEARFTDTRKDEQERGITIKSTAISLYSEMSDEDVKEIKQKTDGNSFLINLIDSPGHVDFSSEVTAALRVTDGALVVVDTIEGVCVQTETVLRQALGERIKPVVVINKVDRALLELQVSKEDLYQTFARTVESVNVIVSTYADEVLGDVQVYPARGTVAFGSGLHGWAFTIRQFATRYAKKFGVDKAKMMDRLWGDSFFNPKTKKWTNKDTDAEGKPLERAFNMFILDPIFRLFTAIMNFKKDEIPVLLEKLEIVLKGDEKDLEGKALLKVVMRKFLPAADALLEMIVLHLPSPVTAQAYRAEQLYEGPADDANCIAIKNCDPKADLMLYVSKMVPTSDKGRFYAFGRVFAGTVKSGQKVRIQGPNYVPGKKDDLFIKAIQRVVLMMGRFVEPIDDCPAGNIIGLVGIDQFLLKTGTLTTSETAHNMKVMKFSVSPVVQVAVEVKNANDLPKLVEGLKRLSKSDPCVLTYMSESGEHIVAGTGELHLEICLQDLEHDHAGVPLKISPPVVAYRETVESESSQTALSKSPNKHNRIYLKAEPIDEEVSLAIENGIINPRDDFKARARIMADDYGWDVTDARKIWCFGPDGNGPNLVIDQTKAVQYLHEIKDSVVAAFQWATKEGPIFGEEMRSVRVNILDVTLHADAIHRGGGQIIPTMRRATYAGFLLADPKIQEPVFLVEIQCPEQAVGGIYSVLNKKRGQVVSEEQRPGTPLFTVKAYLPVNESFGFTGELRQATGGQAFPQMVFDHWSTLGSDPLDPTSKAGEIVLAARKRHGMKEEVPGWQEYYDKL

Binder | Kd [µM]
eEF-2K_(592–725), C-terminal fragment of human eukaryotic elongation factor 2 kinase (residues E592-E725) (domain or fragment, UniProt O00418 592-725, looked up) ENKTKGFDYLLKAAEAGDRQSMILVARAFDSGQNLSPDRCQDWLEALHWYNTALEMTDCDEGGEYDGMQDEPRYMMLAREAEMLFTGGYGLEKDPQRSGDLYTQAAEAAMEAMKGRLANQYYQKAEEAWAQMEE | 15.4 to 19
eEF-2K_(562–725), C-terminal fragment of human eukaryotic elongation factor 2 kinase (residues G562-E725) (domain or fragment) SHMGELEAIVGLGLMYSQLPHHILADVSLKETEENKTKGFDYLLKAAEAGDRQSMILVARAFDSGQNLSPDRCQDWLEALHWYNTALEMTDCDEGGEYDGMQDEPRYMMLAREAEMLFTGGYGLEKDPQRSGDLYTQAAEAAMEAMKGRLANQYYQKAEEAWAQMEE | 4.2 to 8.9
